From patent US20040156851A1, “HMGB1 combination therapies” (Critical Therapeutics, Inc., priority 2002, published 2004)

Key:
RAW 264.7 cells [1] = assay: TNF release from RAW 264.7 cells stimulated with HMGB1, mutants or B box peptides (L929 cytotoxicity bioassay); assay type: cell-based, murine
Description: Murine macrophage-like RAW 264.7 cells (American Type Culture Collection, Rockville, Md.) were cultured in RPMI 1640 medium (Life Technologies, Grand Island, N.Y.) supplemented with 10% fetal bovine serum (Gemini, Catabasas, Calif.), penicillin and streptomycin (Life Technologies) and were used at 90% confluence in serum-free Opti-MEM I medium (Life Technologies, Grand Island, N.Y.). […] Polymyxin B was not used in experiments of synthetic peptide studies.
TNF release was measured by a standard murine fibroblast L929 (ATCC, American Type Culture Collection, Rockville, Md.) cytotoxicity bioassay (Bianchi et al., Journal of Experimental Medicine 183:927-936, 1996) with the minimum detectable concentration of 30 pg/ml. Recombinant mouse TNF was obtained from R&D system Inc., (Minneapolis, Minn.). Murine fibroblast L929 cells (ATCC) were cultured in DMEM (Life Technologies, Grand Island, N.Y.) supplemented with 10% fetal bovine serum (Gemini, Catabasas, Calif.), penicillin (50 units/ml) and streptomycin (50 μg/ml) (Life Technologies) in a humidified incubator with 5% CO2.
The effect of the mutants on TNF release from Murine macrophage-like RAW 264.7 cells (ATCC) was carried out as follows. RAW 264.7 cells were cultured in RPMI 1640 medium (Life Technologies, Grand Island, N.Y.) supplemented with 10% fetal bovine serum (Gemini, Catabasas, Calif.), penicillin and streptomycin (Life Technologies). Polymyxin (Sigma, St. Louis, Mo.) was added at 100 units/ml to suppress the activity of any contaminating LPS. Cells were incubated with 1 μg/ml of full length (wild-type) HMGB1 and each HMGB1 mutant protein in Opti-MEM I medium for 8 hours. Conditioned supernatants (containing TNF which had been released from the cells) were collected and TNF released from the cells was measured by a standard murine fibroblast L929 (ATCC) cytotoxicity bioassay (Bianchi et al., supra) with the minimum detectable concentration of 30 pg/ml. Recombinant mouse TNF was obtained from R & D Systems Inc., (Minneapolis, Minn.) and used as control in these experiments. Data in FIG. 1 are all presented as mean±SEM unless otherwise indicated. (N=6−10).
(§1) To further examine the effect of HMGB1 B box on cytokine production, varying amounts of HMGB1 B box were evaluated for the effects on TNF, IL-1B, and IL-6 production in murine macrophage-like RAW 264.7 cells. Conditioned media were harvested and measured for TNF, IL-1β and IL-6 levels. TNF levels were measured as described herein, and IL-1β and IL-6 levels were measured using the mouse IL-1β and IL-6 enzyme-linked immunosorbent assay (ELISA) kits (R&D System Inc., Minneapolis, Minn.) and N>5 for all experiments.
The kinetics of B box-induced TNF release were also examined. TNF release and TNF mRNA expression were measured in RAW 264.7 cells induced by B box polypeptide or GST tag polypeptide only (used as a control (vector)) (10 μg/ml) for 0 to 48 hours. Supernatants were analyzed for TNF protein levels by an L929 cytotoxicity assay (N=3-5) as described herein. For mRNA measurement, cells were plated in 100 mm plates and treated in Opti-MEM I medium containing B box polypeptide or the vector alone for 0, 4, 8, or 24 hours, as indicated in FIG. 2D. The vector only sample was assayed at the 4 hour time point. Cells were scraped off the plate and total RNA was isolated using the RNAzol B method in accordance with the manufacturer's instructions (Tel-Test “B”, Inc., Friendswood, Tex.). TNF (287 bp) was measured by RNase protection assay (Ambion, Austin, Tex.). Equal loading and the integrity of RNA was verified by ethidium bromide staining of the RNA sample on an agarose-formaldehyde gel. […] TNF mRNA expression was maximal at 4 hours and decreased at 8 and 24 hours. […] A similar study was carried out measuring TNF protein released from RAW 264.7 cells 0, 4, 8, 24, 32 or 48 hours after administration of B box or vector only (GST tag), using the L929 cytotoxicity assay described herein. […]

RAW 264.7 cells [2] = assay: IL-6 release from RAW 264.7 cells (ELISA); assay type: cell-based, murine; settings: B box 0-10 μg/ml, 8 hours (FIG. 2C)
Description: as §1

C3H/HeJ mice = assay: Lethality and histology in C3H/HeJ mice; assay type: in vivo; settings: 8 hours after administration

B1: B box: Human HMGB1 mutant containing only the B box, SEQ ID NO:20 (protein, listed as Homo sapiens)
chain: FKDPNAPKRLPSAFFLFCSEYRPKIKGEHPGLSIGDVAKKLGEMWNNTAADDKQPYEKKAAKLKEKYEKDIAAY
TNF protein release over time (RAW 264.7 cells [1]; 10 μg/ml, 0-48 hours, compared to medium only (FIG. 2E)): stimulated TNF protein expression
TNF release, dose response (RAW 264.7 cells [1]; B box 0-10 μg/ml, 8 hours (FIG. 2A)): increased with increased amounts of B box
IL-6 release, dose response (RAW 264.7 cells [2]): IL-6 release from RAW 264.7 cells increased with increased amounts of B box
histology of liver (C3H/HeJ mice): mild acute inflammatory responses, with some hepatocyte dropout and apoptosis
